Here are results for two molecules from publication PMC5962103, “SHOC1 is a ERCC4-(HhH)2-like protein, integral to the formation of crossover recombination intermediates during mammalian meiosis”.

The data set concerns the target SHOC1 570-1111 (Homo sapiens, UniProt Q5VXU9 570-1111). The data set is described as follows: EMSA; 2 mM Mg2+; 20 mM Tris-HCl pH 7.4, 1 mM DTT, 2 mM MgCl2, 100 mM NaCl, 10 uM 32P-DNA (so in the source), 20 ul, 10 min at 37 C; 8% PAGE in 1x TAE. Particulars: protein: recombinant, label: 5'-32P on #1. A general note: In EMSA bound probe runs differently from free probe, usually more slowly.

Chain of SHOC1 570-1111 (Q5VXU9 570-1111): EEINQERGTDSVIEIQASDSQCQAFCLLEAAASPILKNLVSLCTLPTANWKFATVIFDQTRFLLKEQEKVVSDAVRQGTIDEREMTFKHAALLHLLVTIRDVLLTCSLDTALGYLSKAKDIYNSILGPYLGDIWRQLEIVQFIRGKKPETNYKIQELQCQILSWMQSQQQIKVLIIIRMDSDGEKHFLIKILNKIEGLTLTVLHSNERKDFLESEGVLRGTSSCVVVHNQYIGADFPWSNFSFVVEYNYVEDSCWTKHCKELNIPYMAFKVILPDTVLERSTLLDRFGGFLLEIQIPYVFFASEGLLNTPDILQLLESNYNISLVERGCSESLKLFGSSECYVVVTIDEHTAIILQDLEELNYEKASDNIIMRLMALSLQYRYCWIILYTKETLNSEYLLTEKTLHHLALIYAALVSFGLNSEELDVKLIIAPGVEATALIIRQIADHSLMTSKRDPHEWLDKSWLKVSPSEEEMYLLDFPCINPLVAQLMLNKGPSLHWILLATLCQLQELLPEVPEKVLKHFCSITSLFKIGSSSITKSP

B1: single-stranded DNA (#1) (ssDNA)
DNA: ACGCTGCCGAATTCTACCAGTGCCTTGCTAGGACATCTTTGCCCACCTGCAGGTTCACCC
For B1, the binding result (single strand, 60 nt) is reported as “binds”.

B2: D-loop (#1, #6, #7) (structured_DNA)
DNA 1: B1 DNA
DNA 2: GGGTGAACCTGCAGGTGGGCAGGAAGGCAAAATGCCGCAACTGGTAGAATTCGGCAGCGT
DNA 3: TTGCGGCATTTTGCCTTCCTCGGCCAGTGAATTCGAGCTC
For B2, the binding result (D-loop 1:2 2:3, invading strand 3 pairs by its 5' 20 nt, 3' 20 nt tail) is on record as “binds”.
